Laboratory results taken from IntAct's records for PubMed 21784946.

B1: Cell division protein FtsL (Escherichia coli (strain K12)), P0AEN4 (parent)
chain: MISRVTEALSKVKGSMGSHERHALPGVIGDDLLRFGKLPLCLFICIILTAVTVVTTAHHTRLLTAQREQLVLERDALDIEWRNLILEENALGDHSRVERIATEKLQMQHVDPSQENIVVQK
partner: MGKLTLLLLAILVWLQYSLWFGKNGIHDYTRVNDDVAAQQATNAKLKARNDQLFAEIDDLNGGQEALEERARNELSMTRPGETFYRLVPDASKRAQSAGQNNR
B2: Cell division protein FtsB (Escherichia coli (strain K12)), P0A6S5 (parent)
chain: B1 partner
partner: B1 chain

Variants of: B1
Conditions: with ftsb_ecoli ftsB, P0A6S5

L63A;L70A;L77A;L84A was tested. Which “effect of a mutation on the interaction” value did it give?
The value was “decreasing interaction strength”.

Variants of: B2
Conditions: with ftsl_ecoli ftsL, P0AEN4

With L46A;L53A;L60A;L67A as the variant, how does the “effect of a mutation on the interaction” value read?
The value was “decreasing interaction”.

Variants of: B2
Conditions: with ftsl_ecoli ftsL

Which “effect of a mutation on the interaction” value does the source give for L46A;L53A;L60A;L67A here?
Its value is “decreasing interaction”.
